target: T1, NDC80 Peptide A … / HLA-A*02:01 complex (human); assay: FACS, scFv phage on peptide-loaded T2 cells
T1 construct: whole, on cells; On peptide-pulsed T2 cells (HLA-A*02:01+); also called NDC80/HLA-A*02:01 complex; NDC80/MHC I
Text: 34 human phage scFv libraries were used to pan against NDC80/HLA-A*02:01 complex. In order to avoid the conformational change of MHC I complex introduced by immobilizing the protein complex onto plastic surfaces, cell panning was used in place of conventional plate panning. In cell panning, the human scFv phage libraries were first mixed with T2 cells loaded with control peptides to remove scFv phage clones that bind to T2 cells alone or MHC alone. […] T2 is a TAP-deficient, HLA-A*02:01⁺ lymphoblast cell line that express low amounts of HLA-A*02 on the cell surface and can only present exogenous peptides. […] After extensive washing with PBS, peptide-loaded T2 cells with bound scFv antibody phage were spun down. […] The panning was performed for 3 rounds to enrich scFv phage clones that bound NDC80/HLA-A*02:01 specifically.

Binder | binding result
Clone 12 scFv phage clone (scFv, V domains shown) VH: QVQLQESGPGLVKPSGTLSLTCAVSGGSISSSNWWSWVRQAPGKGLEWIGEIYHGGSTNFNPSLKSRVTISVDKSKNQFSLNLTSVTAADTAVYYCARYASSSHDFWGQGTLVTVSS VL: QSVLTQPPSVSAAPGQRVTIYCSGSRSNIVSNYVSWYQQLPGTAPKLLIYDNNKRPSGIPDRFSGSKSGTSATLGITGLQTGDEADYYCGTWDSSLSAYVFGTGTKVAVLG | binds
Clone 15 scFv phage clone (scFv, V domains shown) VH: QVQLQESGPGLVKPSGTLSLTCAVSGGSISSSNWWSWVRQPPGKGLEWIGEIYHSGSTNYNPSLKSRVTISVDKSKNQFSLKLSSVTAADTAVYYCARYPGFVWDLWGQGTLVTVSS VL: QSVLTQPPSVSAAPGQKVTISCSGSSSNIGSNYVSWYQQLPGTAPKLLIYDNNKRPSGIPDRFSGSKSGTSAILGITGLQTGDEADYYCGTWDSSLTAGVFGTGTKVTVLG | binds
Clone 16 scFv phage clone (scFv, V domains shown) VH: QVQLVQSGAEVKKPGASVKVSCKASGYTFTSYYMHWVRQAPGQGLEWMGIINPSGGSTSYAQKFQGRVTMTRDTSTSTVYMELSSLRSEDTAVYYCARRGWLSWGYYGMDVWGQGTTVTVSS VL: not shown | binds
Clone 2 scFv phage clone (scFv, V domains shown, also called phage clone 2) VH: QVQLVQSGAEVKKPGSSVKVSCKASGGTFSSYAISWVRQAPGQGLEWMGWISAYNGNTNYAQKLQGRVTMTTDTSTSTAYMELRSLRSDDTAVYYCARKGFYSGFDSWGQGTLVTVSS VL: QSVLTQPPSVSAAPGQKVTISCSGSSSNIGSNYVSWYQQLPGTAPKLLIYDNTKRPSGIPDRFSGSKSGSSATLGITGLQTGDEADYYCETLDSSLSAYVFGTGTKVTVLG | binds
Clone 4 scFv phage clone (scFv, V domains shown) VH: QVQLQQWGAGLLKPSETLSLTCAVYGGSFSGYYWSWIRQPPGKGLEWIGEINHSGSTNYNPSLKSRVTISVDTSKNQFSLKLSSVTAADTAVYYCARGVPYDYWGQGTLVTVSS VL: QSVLTQPPSVSAAAGQKVTISCSGSRSNIGSNFVSWYQLLPGTAPRLLIYDNNVRPSGIPDRFSGSKSGSSATLGITGLQTGDEADYYCGTWDSSLIAGVFGGGTKLTVLG | binds
Clone 5 scFv phage clone (scFv, V domains shown) VH: QLQLQESGPGLVKPSGTLSLTCAVSGGSISSSNWWSWVRQPPGKGLEWIGEIYHSGSTNYNPSLKSRVTISVDKSKNQFSLKLSSVTAADTAVYYCARFIYGSSSSQTDTWGQGTLVTVSS VL: QSVLTQPPSVSAAPGQKVTISCSGSSSNIGSNYIYWYQQFPGTAPKLLIYDDNKRPSGIPDRFSGSRSGTSATLGITGLQTGDEADYYCGTWDSPLVAWVFGGGTKLTVLG | binds
Clone 6 scFv phage clone (scFv, V domains shown) VH: QVQLQQWGAGLLKPSETLSLTCAVYGGSFSGYYWSWIRQPPGKGLEWIGEINHSGSTNYNPSLKSRVTISVDTSKNQFSLKLSSVTAADTAVYYCARLEGSYYDVWGQGTLVTVSS VL: QSVLTQPPSVSAAPGQKVTVSCSGTTSDIGSNYVTWYQQLPGTTPKLIIYDNNKRPSGIPDRFSGSKSGTSGTLGITGLQTGDEADYYCGTWDSSLNTFVFGTGTKVTVLG | binds
Clone 8 scFv phage clone (scFv, V domains shown) VH: QLQLQESGPGLVKPSETLSLTCTVSGDSISGYYWSWIRQPPGKGLEWIGEINHSGSTNYNPSLKSRVTISVDTSKNQFSLKLSSVTAADTAVYYCARYYSGFYSSDGWGQGTLVTVSS VL: QSVLTQPPSVSAAPRQKVTISCSGSSSNIGSNYVSWYQQLPGTAPKLLIYDNNKRPSGIPDRFSGSRSGTSATLGITGLQTGDEADYYCGSWDSSLSVYVFGTGTKVTVLG | binds
Clone 9 scFv phage clone (scFv, V domains shown) VH: QVQLQESGPGLVKPPGTLSLTCAVSGGSISSSNWWSWVRQPPGKGLEWIGEIYHSGSTNYNPSLKSRVTISVDKSKNQFSLKLSSVTAADTAVYYCARYEQGSHDSWGQGTLVTVSS VL: QSVLTQPPSVSAAPGQKVTISCSGSSSNIGSNYISWYQQLPGTAPKLLIYDNSKRPSGIPDRFSGFKSGTSATLGITGLQTGDEADYYCGTWDSSLSAYVFGSGTKVTVLG | binds
